This assay deals with T1, FZD3 (human (endogenous in hESC-derived EPs)) (UniProt Q9NPG1).
T1 sequence: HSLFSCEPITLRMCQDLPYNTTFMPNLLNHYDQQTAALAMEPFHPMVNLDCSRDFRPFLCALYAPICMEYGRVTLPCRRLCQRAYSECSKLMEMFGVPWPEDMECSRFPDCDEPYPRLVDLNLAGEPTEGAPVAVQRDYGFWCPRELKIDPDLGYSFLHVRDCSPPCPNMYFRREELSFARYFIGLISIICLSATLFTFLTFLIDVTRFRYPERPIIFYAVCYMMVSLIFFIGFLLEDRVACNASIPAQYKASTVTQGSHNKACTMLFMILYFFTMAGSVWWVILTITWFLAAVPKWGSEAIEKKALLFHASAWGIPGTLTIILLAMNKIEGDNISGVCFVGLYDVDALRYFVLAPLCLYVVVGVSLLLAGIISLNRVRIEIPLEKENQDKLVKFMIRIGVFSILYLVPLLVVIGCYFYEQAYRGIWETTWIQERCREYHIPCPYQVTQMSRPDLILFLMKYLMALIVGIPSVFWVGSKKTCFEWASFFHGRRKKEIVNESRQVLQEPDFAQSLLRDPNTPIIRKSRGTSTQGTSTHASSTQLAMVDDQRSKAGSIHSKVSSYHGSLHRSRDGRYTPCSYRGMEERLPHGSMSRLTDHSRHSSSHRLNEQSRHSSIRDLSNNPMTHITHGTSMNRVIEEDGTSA

B1: WNT5A recombinant protein (ligand)
chain: IIGAQPLCSQLAGLSQGQKKLCHLYQDHMQYIGEGAKTGIKECQYQFRHRRWNCSTVDNTSVFGRVMQIGSRETAFTYAVSAAGVVNAMSRACREGELSTCGCSRAARPKDLPRDWLWGGCGDNIDYGYRFAKEFVDARERERIHAKGSYESARILMNLHNNEAGRRTVYNLADVACKCHGVSGSCSLKTCWLQLADFRKVGDALKEKYDSAAAMRLNSRGKLVQVNSRFNSPTTQDLVYIDPSPDYCVRNESTGSLGTQGRLCNKTSEGMDGCELMCCGRGYDQFKTVQTERCHCKFHWCCYVKCKKCTEIVDQFVCK
In turn, B1 gave an INS+ cell number (immunofluorescence, day 3) of hESC-derived EPs treated with WNT5A and FZD3-neutralizing antibodies, compared to WNT5A treated EPs of 2.5 fold.
